Assay [1] has as its target actin (ATP-G-actin from chicken skeletal muscle) (chicken) (UniProt P68139).
Assay [2] has the same target. Nature of the assay: ITC. Background: Isothermal titration calorimetry measures the heat released or taken up as one component is titrated into another.

On to “F1^15-160, an N-terminally truncated version of F1 that lacks Asn13 (domain or fragment)”, for which the Pi released from actin in the presence of F1^15-160, compared to F1A in assay [1] stood at 25%.

“fragmin domain-1 (F1) (residues 1 to 160) (domain or fragment)”: the stoichiometry N – broadly, a count of units in the complex or per binding partner – in assay [2] is 0.956.
